US12077763B2, “RNA-based control of powdery mildew” (Greenlight Biosciences, Inc., priority 2021, dated 2024)

B1: GS2666 (nucleic acid)
sense: UUCGGCAUAUCAACGUAAAAAAAAAAUAAAUCGACACAAAACAGCUCAAUACCGUAGUUUAUCACCAUGCUUACAAUUACGUAAACGGAGGUCUGCAAAGAGCCUUAAGUCUUUGGAAAUAUCAUGCAGUAGUGGUAUUGAAAAAGGAACCACUAGCUUCGUAAACUAUACCCCAGAAGAUUCCCAGAAGAUUUUAAAUGGAGUUGCUCCGUCUGGGAGUAACAAGACCAAAGCUCGAAGGGAGAAAGAGGCCUUGGAAAAACGCCAAAAGUUAU
antisense: AUAACUUUUGGCGUUUUUCCAAGGCCUCUUUCUCCCUUCGAGCUUUGGUCUUGUUACUCCCAGACGGAGCAACUCCAUUUAAAAUCUUCUGGGAAUCUUCUGGGGUAUAGUUUACGAAGCUAGUGGUUCCUUUUUCAAUACCACUACUGCAUGAUAUUUCCAAAGACUUAAGGCUCUUUGCAGACCUCCGUUUACGUAAUUGUAAGCAUGGUGAUAAACUACGGUAUUGAGCUGUUUUGUGUCGAUUUAUUUUUUUUUUACGUUGAUAUGCCGAA
B2: GS1893: dsRNA trigger SEQ ID NO 124; gene target C2H2 zinc finger domain (nucleic acid)
chain: CACAACCTTGGGTCTGTCCTTAATTTTTCCACCAAATAATCAATCCTACGACCATTGCGTGGGACAATAATTCAATAAGGAAAATTTAAATAAAAAAAAATTTAAAAAAAAAGAAAAAGAAAAAATTTAATTAAAATCCATAATAAATACTCTGTTAATATTTACAAGGGAATCTTAATTATTCAACCAACCAATTATCTCGGAAAAGGATAAAGGAGTTGGTTTACATCTAACGATTAGAAAGCCTTTGAACCTAGTATGCCCAATTCTCTTCATATGGATACCCAGTTTCACTCAAACAATATGAATAGCAGTACAGCGAATTATAGTTCATTGCCTAGCATTTCGCCTCATCAACTGCAGCAGCAAAATCAAATGCCGACTCATATTCT
B3: GS1894: dsRNA trigger SEQ ID NO 123; gene target eka-like_protein (nucleic acid)
chain: AAAGGTAGTGGCTCTGGGTCTGGAAAAGGGAAAAATGTAGAAAAGAATGTTGCTGTTGCAACCCCTAAATTACCAAAACCTCCCCAAACCTCACTGAACACATGGGTTACTGTGGCTCGAAATGGTCAGAAGAAGGCCCGAGTTCTTCAAAATAATAATATACACACCACCCCGATGAGTAAAATAAGACCACGAGTATCAATTGTGGAGAGAGCCTCAGCTGCTCCGACAGATAATAGGCTGTTTCTCCGTCTCCCCCAAGAACATGAATGGCGAAAGCTTTCTCCTGCTGAAATACGTAAGGTAATTTTAAAGAAACTTTCAATCTCACCCGTATTGGTTGGGAATACGTGAGGTAATTGTACATTGGTTGGGAAAATTAA
B4: GS2660 (nucleic acid)
sense: GUCGUAAUGAUCUUGGCCAAUAAUUCGAGGGUCAAGCAUUCGAGAUUUAGACUCAAGGGGAUCUACCGCUGGAUAGAUACCUAAUUCUGAAAUACCACGUGAUAAUACAGUAGUUGCAUCUAAAUGAGCAAACGUUGUUGCGGGUGCUGGAUCCGUCAGAUCAUCAGCUGGCACGUAAACAGCUUGCACUGAAGUGAUUGAGCCUUUGGUAGUUGUUGUAAUUCGCUCUUGCAUAAGACCCAUAUCUACUGCAAGUGUAGGUUGAUAACCAACUGCAGAGGGAAUACGUCCGAGAAGAGCAGAGACUUCGGAGCCGGCCUGAGUGAAACGAAAAAUAUUAUCAAUGAAAAGUAAUACAUCUUGUCCUUCUUCAUCACGGAAAUACUCAGCAAUAGUUA
antisense: UAACUAUUGCUGAGUAUUUCCGUGAUGAAGAAGGACAAGAUGUAUUACUUUUCAUUGAUAAUAUUUUUCGUUUCACUCAGGCCGGCUCCGAAGUCUCUGCUCUUCUCGGACGUAUUCCCUCUGCAGUUGGUUAUCAACCUACACUUGCAGUAGAUAUGGGUCUUAUGCAAGAGCGAAUUACAACAACUACCAAAGGCUCAAUCACUUCAGUGCAAGCUGUUUACGUGCCAGCUGAUGAUCUGACGGAUCCAGCACCCGCAACAACGUUUGCUCAUUUAGAUGCAACUACUGUAUUAUCACGUGGUAUUUCAGAAUUAGGUAUCUAUCCAGCGGUAGAUCCCCUUGAGUCUAAAUCUCGAAUGCUUGACCCUCGAAUUAUUGGCCAAGAUCAUUACGAC
B5: GS2655 (nucleic acid)
sense: UGCCAUUCGCGUAUUUUUCUAUUCGAAGACACUCAGUCCUUCAGAGAUUAUUCCAGAAUUGUAUCCUCAAUUACAAUCUUAUUUUUACACAAUACCUCUUUCCCCUAAAUAAAGUACUACAAUGUCAAAUUCCGAAUUAGCAGUUUCGUAUGCUGCCCUUAUCCUCGCAGAUGACGGGGUUGACGUCACAGCAGAUAAGCUACAAUCAUUAAUCAAGGCUGCUGGUAUUGAUGAUGUUGAGCCAAUUUGGACUACUUUAUUUGCCAAGGCUCUCGAUGGCAAAGAUGUGAAAGAUAUGCUCCUGAAUGUAG
antisense: CUACAUUCAGGAGCAUAUCUUUCACAUCUUUGCCAUCGAGAGCCUUGGCAAAUAAAGUAGUCCAAAUUGGCUCAACAUCAUCAAUACCAGCAGCCUUGAUUAAUGAUUGUAGCUUAUCUGCUGUGACGUCAACCCCGUCAUCUGCGAGGAUAAGGGCAGCAUACGAAACUGCUAAUUCGGAAUUUGACAUUGUAGUACUUUAUUUAGGGGAAAGAGGUAUUGUGUAAAAAUAAGAUUGUAAUUGAGGAUACAAUUCUGGAAUAAUCUCUGAAGGACUGAGUGUCUUCGAAUAGAAAAAUACGCGAAUGGCA
B6: ES46: dsRNA trigger SEQ ID NO 110; gene target Hypotethical effector (nucleic acid)
DNA: TTGGAAGAACCGCCAGAAAACCCAATCAGATACCGATCTCTACTCGGATCATCATTTCACTTCGCAACATGCAATTAACGGTTATGTACCTTCTATAGGCTTTGAATCCGATGGTTATGGGATTAGTAAGAGATCTAATCGTAAAACTGTTCATGGATATTACTGTGGGAGCTCAAAACATGAGCAGCATTTTTATGAGCAGGACTATATTAAAATATATACATGTCAAACATAATGCAAACTTAATTCCATATAGTTAACTGAAATGGTCATTTTTTCACAGCTTTAACTCAATTCCTTTTGAAGAGTGATAACTTTTACTTGCAATTCCTAATTAAAATAAGAGCACAAGCCTTAATTTTTGGATCTAAAATATCAATGCCAACCCCTTGTGCACTGTTGGTAGTGAAAATCTTCGTTATTTGTGACAACATCCACAATCTCGCACTGCGTATTGATA
B7: GS2384 (nucleic acid)
sense: AUGGGAUUUACACCGAUCAACUUUACAUUUUACUGGGCACCUCUACCUUGGAAUCGUGCUCGUGAUCAUGCCCAAAGAACUGUUGCUAGGACUUAUAUGAAUAUAAUCCAAGCUCGUAGAGAAGAGAAAAGAAGCGGUGAGAAUAAGCAUGAUAUAAUGUGGGAGUUGAUGCGUUCCACUUAUAAAGACGGGACUCCGGU
antisense: ACCGGAGUCCCGUCUUUAUAAGUGGAACGCAUCAACUCCCACAUUAUAUCAUGCUUAUUCUCACCGCUUCUUUUCUCUUCUCUACGAGCUUGGAUUAUAUUCAUAUAAGUCCUAGCAACAGUUCUUUGGGCAUGAUCACGAGCACGAUUCCAAGGUAGAGGUGCCCAGUAAAAUGUAAAGUUGAUCGGUGUAAAUCCCAU
B8: GS1895: dsRNA trigger SEQ ID NO 125; gene target eka-like_protein (nucleic acid)
chain: ACGCGCGGCTAATGATATGCACAATGCACGGTGATTAGTAGCATAGATAGTACATTAGCGACTTTTACAAAAGAAGTAGAGATAGAAGAGGCTGTAGCTTTCAAAGCGTACCTCAAACTTGCAATAGCAAACTTTGCAGCAGTAGATTCGTCCCCTCCTCCACCTCGTGTCCCATTACATACAAGACCGAATAAAGGTAACGGAAATGATAGCAGTAAAGGGAAAAGTAAAGAGAAAAACTTGTCAAAGATAGCAGTCGCAATACCTCGTATTGCTTGTAATCGAATTATCATGGGCCACAGTAATCAAAATCCAAATCTGGGTACGATCAAAGAAATAGAATTACCAAAAATTATTAAAAATATGATATA
B9: GS2382 (nucleic acid)
sense: AAAAGUUAUGGCGGAAAUCACUAUAUAUACUGCUUCACAUGCCUUACAAGGAGAAGAGGUCCGUGAGAAUUUUGACUCAUCUUUUGCCGCUCUUUAUCAUGAUCUUGAUAUGGGAUUUACACCGAUCAACUUUACAUUUUACUGGGCACCUCUACCUUGGAAUCGUGCUCGUGAUCAUGCCCAAAGAACUGUUGCUAGGA
antisense: UCCUAGCAACAGUUCUUUGGGCAUGAUCACGAGCACGAUUCCAAGGUAGAGGUGCCCAGUAAAAUGUAAAGUUGAUCGGUGUAAAUCCCAUAUCAAGAUCAUGAUAAAGAGCGGCAAAAGAUGAGUCAAAAUUCUCACGGACCUCUUCUCCUUGUAAGGCAUGUGAAGCAGUAUAUAUAGUGAUUUCCGCCAUAACUUUU
B10: GS2656 (nucleic acid)
sense: GCCCGCUUCCUCAGCUAUUCUUGCCUGUUUUGCGUUGACCACAUCCAUAAUUACGCCACCCUUCAACAUGCGAGCCAGGCCGGUUUUGACCCCAAAAUUCUUUUGUCCCACAGGCUUUGAGGUGCCUUUAUUGAUUCCAUUAUUAACGCCACCAUCAGCAGAGACAGGAAUAGGGAUUUCAGUGGCCAUCUUGCAAUUAUCUCAUAAAUAGUGGUAUUAGUUAAGCGCCCGAAGGUUCUUGUCAAAUUCUUCUUGCAAAUAUUAGUAUCAAGAGUUUGCUGAAGAUAUAAAACUAAGAAACGAAUUGUAAUUAACAAAUGGAUUGUAAAAUUUCUCAAAAUGACCGCCUGGUCGAUAUGACUAUGACGUUUAGAGCCAGGAAGUGUUGCAGGAAAAA
antisense: UUUUUCCUGCAACACUUCCUGGCUCUAAACGUCAUAGUCAUAUCGACCAGGCGGUCAUUUUGAGAAAUUUUACAAUCCAUUUGUUAAUUACAAUUCGUUUCUUAGUUUUAUAUCUUCAGCAAACUCUUGAUACUAAUAUUUGCAAGAAGAAUUUGACAAGAACCUUCGGGCGCUUAACUAAUACCACUAUUUAUGAGAUAAUUGCAAGAUGGCCACUGAAAUCCCUAUUCCUGUCUCUGCUGAUGGUGGCGUUAAUAAUGGAAUCAAUAAAGGCACCUCAAAGCCUGUGGGACAAAAGAAUUUUGGGGUCAAAACCGGCCUGGCUCGCAUGUUGAAGGGUGGCGUAAUUAUGGAUGUGGUCAACGCAAAACAGGCAAGAAUAGCUGAGGAAGCGGGC

Test system: E. necator
Assay: Leaf disc assay, dry inoculum (settling tower), decrease in disease severity / hyphal growth (Example 2)
Details: decrease in disease severity (hyphal growth) relative to untreated control, value ± SE; for % decrease =/− SE TP1: time point 1 (untreated control hyphal growth ≥50%); for % decrease =/− SE TP2: time point 2

Molecule | % decrease =/− SE TP1 [%] | % decrease =/− SE TP2 [%]
B1 | 14 ± 7 | 
B2 | 5 ± 5 | 
B3 | 4 ± 6 | 0 ± 6
B4 |  | 24 ± 8
B5 | 26 ± 9 | 9 ± 9
B6 | 6 ± 0 | 5 ± 0
B7 | 20 ± 0 | 8 ± 0
B8 |  | 4 ± 7
B9 | 17 ± 0 | 4 ± 0
B10 | 34 ± 5 | 46 ± 6
